Where two headings read alike, the source gives them in different places.
B1: TbMP63-OB (aa 472-587) (domain or fragment)
chain: SAIGASWAETELIPHAQCVSNITIVGRVLDVSQASENVSHVTVFVEGERSGEEETLTLCCFGEVSQKIRGTLKRNATIFASGTLRLHPVYEASNNKYYVSPVVHVSMPTGTLAVIT

Tests used:
[1] = target: TbMP18-FL (aa 19-164) (Trypanosoma brucei); test: SEC
[2] = target: TbMP18-FL (aa 19-164) (Trypanosoma brucei)

| Molecule | stoichiometry N [1] | stoichiometry N [2] |
| --- | --- | --- |
| TbMP18-FL (aa 19-164) (natural protein) | 4 | – |
| TbMP24-FL (aa 47-246) (natural protein) | 1.5 | 1.1 |
| B1 | – | 0.67 |
